Measurements published in publication PMC9482650, “Quantitative fragmentomics allow affinity mapping of interactomes” (Nature Communications, 2022).

Tests used:
Test in all cases: holdup assay
Parameters in all cases: key: below the threshold = too weak to quantify, mostly under pKd 3.1 to 4
APBA2_1, Q99767 = biological target: T1, APBA2_1, Q99767
T1 sequence (Q99767 563-664, limits assumed, looked up): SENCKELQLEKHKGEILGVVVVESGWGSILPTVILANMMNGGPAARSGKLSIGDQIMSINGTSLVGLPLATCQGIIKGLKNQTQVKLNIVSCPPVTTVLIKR

GOPC, Q9HD26 = biological target: GOPC, Q9HD26
GORASP1, Q9BQQ3 = biological target: GORASP1, Q9BQQ3
GORASP1, Q9BQQ3, sequence (Q9BQQ3 1-208): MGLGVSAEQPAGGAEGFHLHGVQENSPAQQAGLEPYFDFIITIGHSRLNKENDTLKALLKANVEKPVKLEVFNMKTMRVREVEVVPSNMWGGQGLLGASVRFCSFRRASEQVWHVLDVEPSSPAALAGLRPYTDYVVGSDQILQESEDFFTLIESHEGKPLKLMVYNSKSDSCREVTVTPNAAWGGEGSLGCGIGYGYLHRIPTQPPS

GRIP1_5, Q9Y3R0 = biological target: T2, GRIP1_5, Q9Y3R0
T2 sequence (Q9Y3R0 568-668, limits assumed, looked up): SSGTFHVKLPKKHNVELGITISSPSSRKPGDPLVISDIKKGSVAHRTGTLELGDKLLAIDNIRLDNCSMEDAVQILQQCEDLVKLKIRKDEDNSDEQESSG

IL16_3, Q14005 = biological target: IL16_3, Q14005
IL16_3, Q14005, sequence (Q14005 1107-1207): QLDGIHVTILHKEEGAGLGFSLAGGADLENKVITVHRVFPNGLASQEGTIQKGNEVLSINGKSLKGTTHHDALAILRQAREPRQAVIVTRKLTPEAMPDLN

LNX1_1, Q8TBB1 = biological target: LNX1_1, Q8TBB1
LNX1_1, Q8TBB1, sequence (Q8TBB1 261-371): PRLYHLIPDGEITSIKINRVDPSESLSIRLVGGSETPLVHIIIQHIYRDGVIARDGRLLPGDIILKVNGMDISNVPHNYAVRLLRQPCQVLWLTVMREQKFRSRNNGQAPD

LNX1_3, Q8TBB1 = biological target: LNX1_3, Q8TBB1
LNX1_3, Q8TBB1, sequence (Q8TBB1 500-596): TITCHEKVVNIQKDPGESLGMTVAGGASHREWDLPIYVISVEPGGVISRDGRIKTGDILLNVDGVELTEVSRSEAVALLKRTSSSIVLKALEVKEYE

LNX2_2, Q8N448 = biological target: T3, LNX2_2, Q8N448
T3 sequence (Q8N448 334-432, limits assumed, looked up): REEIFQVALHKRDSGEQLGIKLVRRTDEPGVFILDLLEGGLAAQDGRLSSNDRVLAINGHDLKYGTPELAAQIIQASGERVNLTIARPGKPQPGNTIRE

LNX2_3, Q8N448 = biological target: T4, LNX2_3, Q8N448
T4 sequence (Q8N448 463-564, limits assumed, looked up): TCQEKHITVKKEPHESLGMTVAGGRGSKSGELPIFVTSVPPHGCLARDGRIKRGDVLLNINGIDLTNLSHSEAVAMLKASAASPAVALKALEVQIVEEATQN

MAGI1_2, Q96QZ7 = biological target: MAGI1_2, Q96QZ7
MAGI1_2, Q96QZ7, sequence (Q96QZ7 456-580): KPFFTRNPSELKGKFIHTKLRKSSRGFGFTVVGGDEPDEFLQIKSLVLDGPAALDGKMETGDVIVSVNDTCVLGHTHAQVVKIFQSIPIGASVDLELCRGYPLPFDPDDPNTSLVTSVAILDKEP

MAGI2_4, Q86UL8 = biological target: MAGI2_4, Q86UL8
MAGI2_4, Q86UL8, sequence (Q86UL8 772-865): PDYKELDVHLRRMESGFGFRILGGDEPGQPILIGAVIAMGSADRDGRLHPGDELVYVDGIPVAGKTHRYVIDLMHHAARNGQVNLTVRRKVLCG

MAGI2_5, Q86UL8 = biological target: MAGI2_5, Q86UL8
MAGI2_5, Q86UL8, sequence (Q86UL8 915-1017): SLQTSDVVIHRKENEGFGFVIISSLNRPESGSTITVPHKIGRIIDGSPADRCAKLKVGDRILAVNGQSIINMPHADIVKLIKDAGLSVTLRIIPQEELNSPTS

MAGI2_6, Q86UL8 = biological target: MAGI2_6, Q86UL8
MAGI2_6, Q86UL8, sequence (Q86UL8 1141-1229): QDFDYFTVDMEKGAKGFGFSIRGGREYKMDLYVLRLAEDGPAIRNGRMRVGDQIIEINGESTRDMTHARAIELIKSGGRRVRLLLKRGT

MPDZ_5, O75970 = biological target: T5, MPDZ_5, O75970
T5 sequence (O75970 695-796, limits assumed, looked up): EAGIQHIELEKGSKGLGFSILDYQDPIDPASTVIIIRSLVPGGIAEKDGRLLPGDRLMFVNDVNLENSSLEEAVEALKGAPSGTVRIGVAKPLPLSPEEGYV

NHERF3_4, Q5T2W1 = biological target: T6, NHERF3_4, Q5T2W1
T6 sequence (Q5T2W1 373-468, limits assumed, looked up): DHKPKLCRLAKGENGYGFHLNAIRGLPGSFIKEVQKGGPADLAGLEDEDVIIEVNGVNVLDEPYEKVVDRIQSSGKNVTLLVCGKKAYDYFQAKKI

NHERF4_2, Q86UT5 = biological target: NHERF4_2, Q86UT5
NHERF4_2, Q86UT5, sequence (Q86UT5 220-308): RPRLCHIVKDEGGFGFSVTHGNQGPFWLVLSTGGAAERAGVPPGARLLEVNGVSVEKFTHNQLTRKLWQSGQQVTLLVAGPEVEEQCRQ

NOS1, P29475 = biological target: NOS1, P29475
NOS1, P29475, sequence (P29475 9-101): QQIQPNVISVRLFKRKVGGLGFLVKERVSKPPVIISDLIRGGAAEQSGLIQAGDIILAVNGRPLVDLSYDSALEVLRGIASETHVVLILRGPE

PDZD2_2, O15018 = biological target: T7, PDZD2_2, O15018
T7 sequence (O15018 329-429, limits assumed, looked up): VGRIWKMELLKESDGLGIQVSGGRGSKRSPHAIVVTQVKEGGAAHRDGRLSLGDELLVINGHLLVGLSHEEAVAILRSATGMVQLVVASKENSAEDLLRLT

PDZD7_3, Q9H5P4 = biological target: T8, PDZD7_3, Q9H5P4
T8 sequence (Q9H5P4 857-944, limits assumed, looked up): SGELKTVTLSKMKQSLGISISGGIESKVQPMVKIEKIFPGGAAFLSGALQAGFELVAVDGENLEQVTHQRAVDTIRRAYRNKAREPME

PDZRN3_1, Q9UPQ7 = biological target: T9, PDZRN3_1, Q9UPQ7
T9 sequence (Q9UPQ7 244-349, limits assumed, looked up): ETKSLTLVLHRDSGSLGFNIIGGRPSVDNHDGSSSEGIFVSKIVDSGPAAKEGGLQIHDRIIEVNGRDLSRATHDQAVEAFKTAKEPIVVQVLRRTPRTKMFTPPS

PICK1, Q9NRD5 = biological target: PICK1, Q9NRD5
PICK1, Q9NRD5, sequence (Q9NRD5 17-115): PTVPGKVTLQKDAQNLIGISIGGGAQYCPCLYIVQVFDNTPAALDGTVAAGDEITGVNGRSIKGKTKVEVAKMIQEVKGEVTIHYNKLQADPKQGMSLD

RADIL, Q96JH8 = biological target: T10, RADIL, Q96JH8
T10 sequence (Q96JH8 971-1071, limits assumed, looked up): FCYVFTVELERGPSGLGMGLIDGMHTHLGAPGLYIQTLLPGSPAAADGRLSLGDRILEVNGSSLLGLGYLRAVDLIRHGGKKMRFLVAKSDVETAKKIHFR

SCRIB_3, Q14160 = biological target: SCRIB_3, Q14160
SCRIB_3, Q14160, sequence (Q14160 999-1103): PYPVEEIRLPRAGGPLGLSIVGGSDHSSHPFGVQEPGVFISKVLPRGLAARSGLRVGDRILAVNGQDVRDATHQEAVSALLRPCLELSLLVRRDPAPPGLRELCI

SYNJ2BP, P57105 = biological target: T11, SYNJ2BP, P57105
T11 sequence (P57105 8-110, limits assumed, looked up): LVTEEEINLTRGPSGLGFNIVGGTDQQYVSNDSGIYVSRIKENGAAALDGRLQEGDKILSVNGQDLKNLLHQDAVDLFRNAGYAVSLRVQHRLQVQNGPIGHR

TJP2_1, Q9UDY2 = biological target: TJP2_1, Q9UDY2
TJP2_1, Q9UDY2, sequence (Q9UDY2 24-128): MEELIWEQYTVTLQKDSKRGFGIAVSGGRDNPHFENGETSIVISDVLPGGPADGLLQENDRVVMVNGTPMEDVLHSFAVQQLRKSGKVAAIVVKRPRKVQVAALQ

TJP3_3, O95049 = biological target: T12, TJP3_3, O95049
T12 sequence (O95049 375-456, limits assumed, looked up): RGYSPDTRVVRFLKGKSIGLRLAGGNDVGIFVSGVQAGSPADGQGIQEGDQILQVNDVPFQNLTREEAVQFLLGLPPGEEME

[1] = plain residues with an end cap or a label only (N-terminal biotin on a linker: ahx)
[2] = plain residues with an end cap or a label only (N-terminal biotin on a linker: ttds)

B1: SHKBP1, Q8TBC3 (peptide)
chain: PKMKLNETSF
pKd (APBA2_1, Q99767; [1]): below the threshold | pKd (GOPC, Q9HD26; [1]): below the threshold | pKd (GORASP1, Q9BQQ3; [1]): below the threshold | pKd (GRIP1_5, Q9Y3R0; [1]): below the threshold | pKd (IL16_3, Q14005; [1]): below the threshold | pKd (LNX1_1, Q8TBB1; [1]): below the threshold | pKd (LNX1_3, Q8TBB1; [1]): below the threshold | pKd (LNX2_2, Q8N448; [1]): below the threshold | pKd (LNX2_3, Q8N448; [1]): below the threshold | pKd (MAGI1_2, Q96QZ7; [1]): below the threshold | pKd (MAGI2_4, Q86UL8; [1]): 3.69 | pKd (MAGI2_5, Q86UL8; [1]): 3.53 | pKd (MAGI2_6, Q86UL8; [1]): 3.54 | pKd (MPDZ_5, O75970; [1]): below the threshold | pKd (NHERF3_4, Q5T2W1; [1]): below the threshold | pKd (NHERF4_2, Q86UT5; [1]): below the threshold | pKd (NOS1, P29475; [1]): below the threshold | pKd (PDZD2_2, O15018; [1]): below the threshold | pKd (PDZD7_3, Q9H5P4; [1]): below the threshold | pKd (PDZRN3_1, Q9UPQ7; [1]): below the threshold | pKd (PICK1, Q9NRD5; [1]): below the threshold | pKd (RADIL, Q96JH8; [1]): below the threshold | pKd (SCRIB_3, Q14160; [1]): 4.49 | pKd (SYNJ2BP, P57105; [1]): below the threshold | pKd (TJP2_1, Q9UDY2; [1]): below the threshold | pKd (TJP3_3, O95049; [1]): below the threshold

B2: FAT3, Q8TDW7 (peptide)
chain: FVETQHQTQV
pKd (APBA2_1, Q99767; [2]): below the threshold | pKd (GOPC, Q9HD26; [2]): 3.76 | pKd (GORASP1, Q9BQQ3; [2]): below the threshold | pKd (GRIP1_5, Q9Y3R0; [2]): below the threshold | pKd (IL16_3, Q14005; [2]): below the threshold | pKd (LNX1_1, Q8TBB1; [2]): below the threshold | pKd (LNX1_3, Q8TBB1; [2]): below the threshold | pKd (LNX2_2, Q8N448; [2]): 3.75 | pKd (LNX2_3, Q8N448; [2]): below the threshold | pKd (MAGI1_2, Q96QZ7; [2]): 3.93 | pKd (MAGI2_4, Q86UL8; [2]): 3.91 | pKd (MAGI2_5, Q86UL8; [2]): 4.72 | pKd (MAGI2_6, Q86UL8; [2]): 3.77 | pKd (MPDZ_5, O75970; [2]): below the threshold | pKd (NHERF3_4, Q5T2W1; [2]): below the threshold | pKd (NHERF4_2, Q86UT5; [2]): below the threshold | pKd (NOS1, P29475; [2]): 3.95 | pKd (PDZD2_2, O15018; [2]): 4.35 | pKd (PDZD7_3, Q9H5P4; [2]): 4.11 | pKd (PDZRN3_1, Q9UPQ7; [2]): 3.53 | pKd (PICK1, Q9NRD5; [2]): below the threshold | pKd (RADIL, Q96JH8; [2]): 4.27 | pKd (SCRIB_3, Q14160; [2]): 4.02 | pKd (SYNJ2BP, P57105; [2]): 4.08 | pKd (TJP2_1, Q9UDY2; [2]): below the threshold | pKd (TJP3_3, O95049; [2]): below the threshold

B3: PDZRN3, Q9UPQ7 (peptide)
chain: YNSFLSVTTV
pKd (APBA2_1, Q99767; [1]): below the threshold | pKd (GOPC, Q9HD26; [1]): 4.1 | pKd (GORASP1, Q9BQQ3; [1]): 3.8 | pKd (GRIP1_5, Q9Y3R0; [1]): below the threshold | pKd (IL16_3, Q14005; [1]): below the threshold | pKd (LNX1_1, Q8TBB1; [1]): 3.8 | pKd (LNX1_3, Q8TBB1; [1]): below the threshold | pKd (LNX2_2, Q8N448; [1]): 4.94 | pKd (LNX2_3, Q8N448; [1]): below the threshold | pKd (MAGI1_2, Q96QZ7; [1]): 3.99 | pKd (MAGI2_4, Q86UL8; [1]): 4.56 | pKd (MAGI2_5, Q86UL8; [1]): 3.9 | pKd (MAGI2_6, Q86UL8; [1]): 3.6 | pKd (MPDZ_5, O75970; [1]): below the threshold | pKd (NHERF3_4, Q5T2W1; [1]): 3.63 | pKd (NHERF4_2, Q86UT5; [1]): below the threshold | pKd (NOS1, P29475; [1]): below the threshold | pKd (PDZD2_2, O15018; [1]): 3.55 | pKd (PDZD7_3, Q9H5P4; [1]): 5.58 | pKd (PDZRN3_1, Q9UPQ7; [1]): below the threshold | pKd (PICK1, Q9NRD5; [1]): below the threshold | pKd (RADIL, Q96JH8; [1]): 4.2 | pKd (SCRIB_3, Q14160; [1]): 3.64 | pKd (SYNJ2BP, P57105; [1]): below the threshold | pKd (TJP2_1, Q9UDY2; [1]): below the threshold | pKd (TJP3_3, O95049; [1]): below the threshold

B4: HPV33-E6, P06427 (peptide)
chain: SRSRRRETAL
pKd (APBA2_1, Q99767; [2]): below the threshold | pKd (GOPC, Q9HD26; [2]): 3.97 | pKd (GORASP1, Q9BQQ3; [2]): below the threshold | pKd (GRIP1_5, Q9Y3R0; [2]): below the threshold | pKd (IL16_3, Q14005; [2]): below the threshold | pKd (LNX1_1, Q8TBB1; [2]): below the threshold | pKd (LNX1_3, Q8TBB1; [2]): below the threshold | pKd (LNX2_2, Q8N448; [2]): below the threshold | pKd (LNX2_3, Q8N448; [2]): below the threshold | pKd (MAGI1_2, Q96QZ7; [2]): 5.67 | pKd (MAGI2_4, Q86UL8; [2]): below the threshold | pKd (MAGI2_5, Q86UL8; [2]): below the threshold | pKd (MAGI2_6, Q86UL8; [2]): below the threshold | pKd (MPDZ_5, O75970; [2]): below the threshold | pKd (NHERF3_4, Q5T2W1; [2]): 3.97 | pKd (NHERF4_2, Q86UT5; [2]): below the threshold | pKd (NOS1, P29475; [2]): 4.03 | pKd (PDZD2_2, O15018; [2]): below the threshold | pKd (PDZD7_3, Q9H5P4; [2]): 4.65 | pKd (PDZRN3_1, Q9UPQ7; [2]): 5.93 | pKd (PICK1, Q9NRD5; [2]): below the threshold | pKd (RADIL, Q96JH8; [2]): below the threshold | pKd (SCRIB_3, Q14160; [2]): 5.3 | pKd (SYNJ2BP, P57105; [2]): 5.3 | pKd (TJP2_1, Q9UDY2; [2]): 4.01 | pKd (TJP3_3, O95049; [2]): below the threshold
